The record followed here is patent US20100330076A1.

Assay [1] concerns the target FcγRI (human) (UniProt P12314). Nature of the assay: BIACore SPR. In general terms: In SPR one partner is held on a chip, and binding of the other changes the refractive index at the surface.
Assay [2] concerns the target FcγRIa (human) (UniProt P12314). Briefly: BIACore SPR.

FcγRIa (human), sequence (P12314 16-292): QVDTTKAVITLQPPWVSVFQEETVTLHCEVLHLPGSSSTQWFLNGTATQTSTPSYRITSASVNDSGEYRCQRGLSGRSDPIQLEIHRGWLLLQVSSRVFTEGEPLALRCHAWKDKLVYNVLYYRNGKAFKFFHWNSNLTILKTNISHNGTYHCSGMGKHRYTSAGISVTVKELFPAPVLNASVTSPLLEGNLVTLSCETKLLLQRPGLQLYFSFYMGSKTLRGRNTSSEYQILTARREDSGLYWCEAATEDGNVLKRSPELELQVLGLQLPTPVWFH
FcγRI (human), sequence (P12314 16-292): as above

In general, Kd refers to a measure of binding affinity in units of concentration. Higher therefore signals weaker binding. In assay [1], Aglycosylated wild type Trastuzumab displayed a Kd of 382 nM. Turning to Aglycosylated wild type trastuzumab, the Kd in assay [2] was found to be 382 nM. In other words, the sub-micromolar range.
